Literature values as cited in article PMC10845085.

Target: Neurotensin (Homo sapiens) (UniProt P30990)

Kd: 6 nM
Substance: Neurotensin receptor 2 (from UniProt O95665)
